According to patent US20110230416A1:

Biological target: hLDLR of non-genetically modified human cells (human fibroblasts, HUVEC) (human), P01130
Assay: FACS on HUVEC

Sequence of hLDLR of non-genetically modified human cells (human fibroblasts, HUVEC) (human), P01130 (P01130 22-860): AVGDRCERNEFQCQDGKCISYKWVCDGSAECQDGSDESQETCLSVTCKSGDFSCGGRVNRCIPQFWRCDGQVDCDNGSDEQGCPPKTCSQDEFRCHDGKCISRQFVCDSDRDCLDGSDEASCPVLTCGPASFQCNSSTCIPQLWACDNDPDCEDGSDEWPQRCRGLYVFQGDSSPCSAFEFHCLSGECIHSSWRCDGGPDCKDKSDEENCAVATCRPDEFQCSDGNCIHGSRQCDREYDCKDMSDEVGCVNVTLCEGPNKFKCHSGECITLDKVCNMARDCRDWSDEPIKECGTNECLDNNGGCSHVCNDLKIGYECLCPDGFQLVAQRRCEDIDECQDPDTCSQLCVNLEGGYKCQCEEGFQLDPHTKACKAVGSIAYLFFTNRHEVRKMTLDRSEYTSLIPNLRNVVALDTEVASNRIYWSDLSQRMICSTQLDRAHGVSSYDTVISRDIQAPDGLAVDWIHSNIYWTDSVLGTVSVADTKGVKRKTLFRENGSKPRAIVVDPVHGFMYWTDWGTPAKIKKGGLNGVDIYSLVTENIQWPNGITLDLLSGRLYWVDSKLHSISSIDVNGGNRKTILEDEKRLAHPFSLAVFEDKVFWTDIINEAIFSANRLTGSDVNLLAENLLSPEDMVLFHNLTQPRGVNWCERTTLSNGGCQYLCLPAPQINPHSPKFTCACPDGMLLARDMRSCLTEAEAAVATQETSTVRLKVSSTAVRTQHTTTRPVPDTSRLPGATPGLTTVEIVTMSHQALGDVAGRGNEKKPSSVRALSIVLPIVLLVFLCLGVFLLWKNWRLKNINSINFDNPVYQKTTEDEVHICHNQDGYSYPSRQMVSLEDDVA

B1: bacterial virus clone expressing linear peptide SEQ ID NO: 21 (peptide)
peptide: TPSAHAMALQSLSVG
modifications: not checked
percentage of shift of the fluorescence signal in zone Q2: > 55.8%

B2: bacterial virus clone expressing cyclic peptide SEQ ID NO: 11 (peptide)
peptide: DSGLCMPRLRGCDPR
modifications: not checked
percentage of shift of the fluorescence signal in zone Q2: > 70%
